Data taken from US20210292413A1 (ACADEMIA SINICA, published 2021).

B1: SHP-1 (enzyme)
chain: not shown
B2: anti-Siglec-3 mAb clone 10C8 (antibody, human IgG1, kappa, V domains shown)
VH: EVQLVESGGGLVQPGGSLRLSCAASGFTINNGWIHWVRQAPGKGLEWVAGIGPYGGSTFYADSVKGRFTISADTSKNTAYLQMNSLRAEDTAVYYCSRFIGSYSHMDYWGQGTLVTVSS
VL: DIQMTQSPSSLSASVGDRVTITCRASQDVYYYVAWYQQKPGKAPKLLISSAGGLYSGVPSRFSGSGSGTDFTLTISSLQPEDFATYYCQQYFNFPLTFGQGTKVEIKR
notes: the isotype control used beside it is IgG1; also called mAb 10C8; antibody 10C8

Assays:
[1] = target: T1, human Siglec-3 on cells (moDC, PBMC of CHB patients) (human, UniProt P20138 18-364); test: co-IP (IP: Siglec-3) from moDC treated with anti-Siglec-3 mAb 10C8; Western blot, densitometry, fold of Mock [A]
T1 construct: whole, on cells; also called Siglec-3 receptor

[2] = target: T1, human Siglec-3 on cells (moDC, PBMC of …); test: co-IP (IP: Siglec-3) from moDC, HBV -, 10C8 -; Western blot, densitometry, normalized to the untreated control [E]
[3] = target: T1, human Siglec-3 on cells (moDC, PBMC of …); test: co-IP (IP: Siglec-3) from moDC incubated 30 mins with 3x10^8 copies/mL hHBV; Western blot, densitometry, normalized to the first lane [F]
[4] = target: T1, human Siglec-3 on cells (moDC, PBMC of …); test: co-IP (IP: Siglec-3) from moDC, HBV +, 10C8 + (10C8 given 1 hour before HBV); Western blot, densitometry, normalized to the untreated control [E]
[5] = target: T1, human Siglec-3 on cells (moDC, PBMC of …); test: co-IP (IP: Siglec-3) from moDC incubated 30 mins with 0 copies/mL hHBV; Western blot, densitometry, normalized to the first lane [F]
[6] = target: T1, human Siglec-3 on cells (moDC, PBMC of …); test: co-IP (IP: Siglec-3) from moDC, HBV -, 10C8 +; Western blot, densitometry, normalized to the untreated control [E]
[7] = target: T1, human Siglec-3 on cells (moDC, PBMC of …); test: co-IP (IP: Siglec-3) from moDC incubated 30 mins with 10^9 copies/mL hHBV; Western blot, densitometry, normalized to the first lane [F]
[8] = target: T1, human Siglec-3 on cells (moDC, PBMC of …); test: co-IP (IP: Siglec-3) from moDC, HBV +, 10C8 -; Western blot, densitometry, normalized to the untreated control [E]
[9] = target: T1, human Siglec-3 on cells (moDC, PBMC of …); test: co-IP (IP: Siglec-3) from moDC incubated with hHBV for 0 min; Western blot, densitometry, normalized to the starting point [E]
[10] = target: T1, human Siglec-3 on cells (moDC, PBMC of …); test: co-IP (IP: Siglec-3) from moDC incubated with hHBV for 30 min; Western blot, densitometry, normalized to the starting point [E]
[11] = target: T1, human Siglec-3 on cells (moDC, PBMC of …); test: co-IP (IP: Siglec-3) from moDC incubated 30 mins with 10^8 copies/mL hHBV; Western blot, densitometry, normalized to the first lane [F]
[12] = target: T1, human Siglec-3 on cells (moDC, PBMC of …); test: co-IP (IP: Siglec-3) from moDC incubated with hHBV for 15 min; Western blot, densitometry, normalized to the starting point [E]
[13] = target: T1, human Siglec-3 on cells (moDC, PBMC of …); test: co-IP (IP: Siglec-3) from moDC incubated with hHBV for 60 min; Western blot, densitometry, normalized to the starting point [E]
[14] = target: T1, human Siglec-3 on cells (moDC, PBMC of …); test: co-IP (IP: Siglec-3) from moDC treated with HBV (hHBV); Western blot, densitometry, fold of Mock [A]
[15] = target: T1, human Siglec-3 on cells (moDC, PBMC of …); test: co-IP (IP: Siglec-3) from moDC, lane Mock; Western blot, densitometry [A]
[16] = target: T1, human Siglec-3 on cells (moDC, PBMC of …); test: co-IP (IP: Siglec-3) from moDC treated with anti-Siglec-3 mAb 2B9; Western blot, densitometry, fold of Mock; strong band at the 72 mark [A]
[17] = target: T1, human Siglec-3 on cells (moDC, PBMC of …); test: flow cytometry on moDC with APC-conjugated anti-Siglec-3 mAb

T1 sequence (P20138 18-364): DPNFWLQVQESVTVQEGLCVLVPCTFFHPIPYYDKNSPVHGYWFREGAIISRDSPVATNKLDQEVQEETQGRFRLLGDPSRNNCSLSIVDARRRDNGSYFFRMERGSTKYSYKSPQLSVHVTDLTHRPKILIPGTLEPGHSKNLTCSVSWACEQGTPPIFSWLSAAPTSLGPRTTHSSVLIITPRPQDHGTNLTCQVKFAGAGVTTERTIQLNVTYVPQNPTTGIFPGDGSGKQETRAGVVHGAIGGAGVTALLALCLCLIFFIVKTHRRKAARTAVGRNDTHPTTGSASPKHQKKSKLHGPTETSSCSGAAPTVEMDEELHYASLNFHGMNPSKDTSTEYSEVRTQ

Binder	fold change of SHP-1 co-precipitated with Siglec-3 [1]	fold change of SHP-1 co-precipitated with Siglec-3 [2]	fold change of SHP-1 co-precipitated with Siglec-3 [3]	fold change of SHP-1 co-precipitated with Siglec-3 [4]	fold change of SHP-1 co-precipitated with Siglec-3 [5]	fold change of SHP-1 co-precipitated with Siglec-3 [6]	fold change of SHP-1 co-precipitated with Siglec-3 [7]	fold change of SHP-1 co-precipitated with Siglec-3 [8]	fold change of SHP-1 co-precipitated with Siglec-3 [9]	fold change of SHP-1 co-precipitated with Siglec-3 [10]	fold change of SHP-1 co-precipitated with Siglec-3 [11]	fold change of SHP-1 co-precipitated with Siglec-3 [12]	fold change of SHP-1 co-precipitated with Siglec-3 [13]	fold change of SHP-1 co-precipitated with Siglec-3 [14]	fold change of SHP-1 co-precipitated with Siglec-3 [15]	fold change of SHP-1 co-precipitated with Siglec-3 [16]	binding result [17]
B1	1.3 fold	1 fold	7.7 fold	1.2 fold	1 fold	1.3 fold	14 fold	10 fold	1 fold	26 fold	1.5 fold	9.1 fold	11 fold	2.4 fold	1 fold	36 fold	–
B2	–	–	–	–	–	–	–	–	–	–	–	–	–	–	–	–	binds
